Data on 1 protein can be found in paper PMC8452682, “Unwinding of a DNA replication fork by a hexameric viral helicase” (Nature Communications, 2021).

The data set concerns the molecule itself. In words: cryo-EM structure; E1RF complex: 60 uM E1 assembled with 10 uM fork DNA, no nucleotide, purified by gel filtration (10 mM Tris-Cl pH 8.0, 225 mM NaCl, 2 mM DTT, 0.1 mM PMSF, 1 mM EDTA); hexamer on DNA; Titan Krios 300 kV, K3.

B1: Bovine papillomavirus (BPV) E1 helicase, full-length, wild type (enzyme)
chain: MANDKGSNWDSGLGCSYLLTEAECESDKENEEPGAGVELSVESDRYDSQDEDFVDNASVFQGNHLEVFQALEKKAGEEQILNLKRKVLGSSQNSSGSEASETPVKRRKSGAKRRLFAENEANRVLTPLQVQGEGEGRQELNEEQAISHLHLQLVKSKNATVFKLGLFKSLFLCSFHDITRLFKNDKTTNQQWVLAVFGLAEVFFEASFELLKKQCSFLQMQKRSHEGGTCAVYLICFNTAKSRETVRNLMANTLNVREECLMLQPAKIRGLSAALFWFKSSLSPATLKHGALPEWIRAQTTLNESLQTEKFDFGTMVQWAYDHKYAEESKIAYEYALAAGSDSNARAFLATNSQAKHVKDCATMVRHYLRAETQALSMPAYIKARCKLATGEGSWKSILTFFNYQNIELITFINALKLWLKGIPKKNCLAFIGPPNTGKSMLCNSLIHFLGGSVLSFANHKSHFWLASLADTRAALVDDATHACWRYFDTYLRNALDGYPVSIDRKHKAAVQIKAPPLLVTSNIDVQAEDRYLYLHSRVQTFRFEQPCTDESGEQPFNITDADWKSFFVRLWGRLDLIDEEEDSEEDGDSMRTFTCSARNTNAVD
notes: Replication protein E1 of bovine papillomavirus (BPV), full length; C-terminal acidic tail is residues 579-605; Hexamer assembled on a synthetic DNA replication fork (30 bp dsDNA, 3' T20, 13-base 5' tail) without nucleotide; also called E1 protein; subunits A-F of the E1RF complex; source: expressed as a GST fusion protein, purified (glutathione sepharose, thrombin cleavage, cation and anion …)
In general, stoichiometry N refers to the number of molecules, sites or subunits per partner or assembly. As to B1, the “stoichiometry N” value came to 6.
